Measured values: patent US20240409635A1 (VIBRANT PHARMA, published 2024)

Experiments:
[1] = target: T1, keyhole limpet haemocyanin; test: ELISA, KLH coated, 100 nM antibody
T1 construct: Bought reagent, coated at 5 ug/mL; also called KLH
Protocol: (§1) The experimental steps are as follows [0420] […] (4) 50 μl anti-human IgG-HRP conjugate (Sigma, AP113P, 1:8000 dilution) was added to each well; the plate was incubated for 1 h at room temperature and washed 6 times with 0.05% PBST; [0424] (5) 50 μl of TMB chromogenic solution (Biopanda, TMB-S-001) was added to each well and incubated at room temperature for 10-15 minutes for color development; [0425] (6) 50 μl of 1M HCl was added to each well to stop the color development, and the absorbance at 450 nm was measured using a microplate reader (Biotek, SYNERGY LX); Data analysis: If the ratio between the absorbance of the antibody and the absorbance of the blank control PBS is ≥3, there is too much non-specific binding.

[2] = target: T2, Insulin; test: ELISA, insulin coated, 100 nM antibody
T2 construct: Bought reagent, coated at 5 ug/mL
Protocol: as §1

[3] = target: T3, recombinant human EGFR protein (human, UniProt P00533 25-645); test: BLI, antibody on AHC sensor
T3 construct: Bought
Protocol: (§2) Antibodies were first captured onto an anti-human IgG Fc coated AHC biosensor (Anti-hIgG Fc, Sartorius, 18-5060). Antibodies were diluted to 5 μg/mL and 1.5 nm protein was coupled to the AHC sensor surface in 0.02% PBST.
(§3) After the sensor captures the antibodies, it is used to bind and dissociate with different concentrations of analytes to obtain the KD value of the interaction. The experimental parameters are as follows: Baseline1: 60 s, Loading: 240 s, Baseline2: 180 s, Association: 240 s, Dissociation: 600 s, High sensitivity kinetics: 2 Hz. Kinetic constants were derived based on the rate equation for 1:1 Langmuir binding to obtain equilibrium dissociation constants (KD). The Data Analysis HT 12 software (Sartorius, 50-5029) was used to simultaneously fit binding and dissociation curves to calculate Kₒₙ and Koff. The affinity KD was calculated based on the below formula: KD=Koff/Kₒₙ.

[4] = target: T4, recombinant human CD3ε/δ protein (human, UniProt P07766 23-126; P04234 22-105); test: BLI, antibody on AHC sensor
T4 construct: Bought heterodimer
T4 sequence (P07766 23-126, stated change not applied, chain 1 of 2): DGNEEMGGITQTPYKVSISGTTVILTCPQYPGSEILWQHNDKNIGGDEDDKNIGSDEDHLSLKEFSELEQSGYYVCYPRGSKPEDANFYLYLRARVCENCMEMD
T4 sequence (P04234 22-105, stated change not applied, chain 2 of 2): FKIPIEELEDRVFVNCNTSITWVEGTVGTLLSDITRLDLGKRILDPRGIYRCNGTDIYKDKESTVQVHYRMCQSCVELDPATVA
Protocol: as §2, §3

absorbance ratio to PBS blank [1]: 0.5 | absorbance ratio to PBS blank [2]: 0.86 | Kd [3]: 0.645 nM | koff [3]: 0.000401 s⁻¹ | kon [3]: 622000 M⁻¹ s⁻¹ | Kd [4]: 5.51 nM | koff [4]: 0.00302 s⁻¹ | kon [4]: 547000 M⁻¹ s⁻¹
B1: EGFR-BsAb bispecific control antibody (TA1-Fab anti-CD3 x EGFR VHH) (bispecific antibody, human IgG4 S228P, kappa, F234A L235A)
heavy: EVKLLESGGGLVQPKGSLKLSCAASGFTFNTYAMNWVRQAPGKGLEWVARIRSKYNNYATYYADSVKDRFTISRDDSQSILYLQMNNLKTEDTAMYYCVRHGNFGNSYVSWFAYWGQGTLVTVSSASTKGPSVFPLAPCSRSTSESTAALGCLVKDYFPEPVTVSWNSGALTSGVHTFPAVLQSSGLYSLSSVVTVPSSSLGTKTYTCNVDHKPSNTKVDKRVESKYGPPCPPCPAPEAAGGPSVFLFPPKPKDTLMISRTPEVTCVVVDVSQEDPEVQFNWYVDGVEVHNAKTKPREEQFNSTYRVVSVLTVLHQDWLNGKEYKCKVSNKGLPSSIEKTISKAKGQPREPQVYTLPPCQEEMTKNQVSLWCLVKGFYPSDIAVEWESNGQPENNYKTTPPVLDSDGSFFLYSRLTVDKSRWQEGNVFSCSVMHEALHNHYTQKSLSLSL
chain: QVQLQESGGGSVQAGGSLKLSCAASGRGFSRYAMGWFRQAPGQDREFVATISWTNSTDYADSVKGRFAISRDNAKNTAYLQMNSLKPEDTAVYYCAADKWASSTRSIDYDYWGQGIQVTVSSESKYGPPCPPCPAPEAAGGPSVFLFPPKPKDTLMISRTPEVTCVVVDVSQEDPEVQFNWYVDGVEVHNAKTKPREEQFNSTYRVVSVLTVLHQDWLNGKEYKCKVSNKGLPSSIEKTISKAKGQPREPQVCTLPPSQEEMTKNQVSLSCAVKGFYPSDIAVEWESNGQPENNYKTTPPVLDSDGSFFLVSRLTVDKSRWQEGNVFSCSVMHEALHNRFTQKSLSLSL
light: QAVVTQESALTTSPGETVTLTCRSSTGAVTTSNYANWVQEKPDHLFTGLIGGTNKRAPGVPARFSGSLIGDKAALTITGAQTEDEAIYFCALWYSNLWVFGGGTKVEIKRTVAAPSVFIFPPSDEQLKSGTASVVCLLNNFYPREAKVQWKVDNALQSGNSQESVTEQDSKDSTYSLSSTLTLSKADYEKHKVYACEVTHQGLSSPVTKSFNRGEC
notes: IgG4
